In patent publication US20110004951A1, “METHODS AND COMPOSITIONS FOR IDENTIFYING COMPOUNDS THAT INHIBIT HIV-1 SUBUNIT-SPECIFIC REVERSE TRANSCRIPTASE” (UAB Research Foundation, The, priority 2004, published 2011):
pIC50: −log10 of the molar value.

Columns and labels:
[1] = molecular target: p66 subunit of HIV-1 reverse transcriptase, expressed in trans with Met-Gly on the N-terminus (HIV-1 (pSG3)); experiment: cell-based or functional assay
[2] = test system: HIV-1 NL4-3 with L234A, W398A, W401A and YMAA mutations; experiment: Infectivity of HIV-1 NL4-3 proviral clones with RT mutations, with efavirenz (FIG. 23); conditions: NL4-3 proviral clones with RT mutation, transfected into 293T cells
Description: Additional analysis of the W401A and W410A mutations was conducted in the context of the complete HIV-1 NL4-3 proviral clone. […] The non-infectious RT-minus M7 clone was included as negative control (lane 2). […] Probing a replica blot with mAb to CA confirmed that approximately the same amount of each virus was analyzed (FIG. 13C).

[3] = molecular target: p66^L234A subunit of HIV-1 reverse transcriptase, expressed in trans (HIV-1 (pSG3)); experiment: cell-based or functional assay
[4] = molecular target: p66^W401A subunit of HIV-1 reverse transcriptase, expressed in trans (HIV-1 (pSG3)); experiment: cell-based or functional assay
[5] = molecular target: p66^W410A subunit of HIV-1 reverse transcriptase, expressed in trans (HIV-1 (pSG3)); experiment: cell-based or functional assay
[6] = test system: M7 virions complemented with wildtype trans-RT (Vpr-p51/p66); experiment: Inhibition of trans-RT using NRTI and NNRTI, TZM-b1 reporter cell infectivity assay; format: cell-based, HIV-1; conditions: for antiviral effect, inhibition of infectivity: TZM-b1 indicator cells, 3TC 0.04, 0.2 and 1.0 μM, nevirapine 1.0, 5.0 and 5.0 μM as printed
Description: Virions derived by cotransfection with M7, vpr-p51/p66 and vpr-IN were used to infect the TZM-b1 reporter cell line. The two RT drugs, 3TC and nevirapine, were analyzed at concentrations of 0.04-1.0 μM for 3TC and 1.0-25.0 μM for nevirapine as described in Example 1. The results are expressed as a percentage of untreated virus.
The trans-heterodimer assay is of clinical relevance for analyzing HIV-1 RT inhibitors, drug resistance and the effects of drug resistance mutations on viral fitness. To examine the response of the trans-heterodimeric RT to anti-RT drugs, transfection-derived M7 virions complemented with wildtype trans-RT (Vpr-p51/p66) were used to infect the TZM-b1 indicator cells in the absence or presence of either 3TC (0.04, 0.2 and 1.0 μM) or nevirapine ([…]).
Virions were derived by cotransfection of 293T cells with M7, vpr-p51/p66 and vpr-IN. The TZM-b1 cells were seeded overnight in 24-well plates at a concentration of 40,000 cells in 250 μl of medium per well. The culture medium was removed and replaced with 250 μl of DMEM containing 1% FBS and 2× drug concentrations (5-fold dilutions). 250 μl of virus suspension normalized for equal IU, as determined by TZM-b1 assay (diluted in DMEM containing 1% FBS and 80 μg/ml DEAE-dextran), was then added to the cells. The two RT drugs used in this analysis, 3TC and nevirapine, were at final concentrations ranging from 0.04-1.0 μM and 1.0-25.0 μM, respectively. The cells were fixed 48 h post-infection, stained with X-gal reagent, and the blue-stained cells were counted using a light microscope as described above. The 50% inhibition concentration (IC50) was measured with a 95% confidence interval.

[7] = molecular target: T1, p51W401A/p66W401A trans-heterodimeric RT (Human immunodeficiency virus type 1 group M subtype B, UniProt P04585, W988A); experiment: Effects of NNRTIs on trans-RT subunit interaction: immunoblot of virion-associated p66 from transfected 293T cells; format: cell-based, HIV-1; conditions: p51 W401A/p66 W401A RT mutants, FIG. 22
T1 construct: expressed in transfected cells; host or cells: 293T
Description: The dimerization enhancing NNRTI EFV was added to the culture medium 12 h after DNA transfection at concentrations ranging from 0.01-1.0 μM. The transfection-derived virions were collected 48 hours later and analyzed by immunoblot using mAbs to (A) RNase H and (B) CA.
At 24 h post-transfection, the specified concentrations of drug were added. […] The clarified supernatants were processed for and analyzed by immunoblot as described below.
Transfection-derived virions were concentrated by ultracentrifugation through 20% sucrose cushion (125,000×g, 2 hr, 4° C.) using a SW41 rotor (Beckman Inc.). […] The blocked blots were exposed to an appropriate primary antibody for 1 h in blocking buffer with constant mixing. After extension washing, bound antibodies were detected by chemiluminescence using horseradish peroxidase-conjugated species-specific secondary antibodies (Southern Biotechnology Associates, Inc.).

[8] = molecular target: p66^W410L subunit of HIV-1 reverse transcriptase, expressed in trans (HIV-1 (pSG3)); experiment: cell-based or functional assay

## Vpr-p51^W414A fusion protein
[1]
  virus infectivity, TZM-b1 reporter cells, percentage of wildtype trans-RT heterodimer: < 50%

## O=C1Nc2ccc(Cl)cc2[C@@](C#CC2CC2)(C(F)(F)F)O1 [efavirenz]
[2]
  rescue of infectivity of mutant virus: not rescued

## Vpr-p51 fusion protein, wildtype, modified construct with 135 bps of PR sequence (45 amino acids) between Vpr and RT
[3]
  virus infectivity, TZM-b1 reporter cells, percentage of wildtype trans heterodimer: < 5%
[4]
  virus infectivity, JLTRG-R5 reporter T cell line (EGFP), percentage of wildtype trans-RT: 50%
  virus infectivity, TZM-b1 reporter cells, percentage of wildtype trans heterodimer: 40%
  virus infectivity, TZM-b1 reporter cells, percentage of wildtype trans-RT: 40%

## Vpr-p51^N363A fusion protein
[5]
  virus infectivity, TZM-b1 reporter cells, percentage of wildtype trans heterodimer: 35%

## Cc1ccnc2c1NC(=O)c1cccnc1N2C1CC1 [nevirapine]
[6]; Human immunodeficiency virus 1, TZM-b1, 48 h, read-out: IC50, inhibition of infectivity
  pIC50: 7.96
[6]
  antiviral effect, inhibition of infectivity: potent, dosage-dependent antiviral effect

## Vpr-p51^Y405A fusion protein
[5]
  virus infectivity, TZM-b1 reporter cells, percentage of wildtype trans heterodimer: 25%
[1]
  virus infectivity, TZM-b1 reporter cells, percentage of wildtype trans-RT heterodimer: 50%

## Vpr-p51^W401L fusion protein
[5]
  virus infectivity, TZM-b1 reporter cells, percentage of wildtype trans heterodimer: 40%

## Vpr-p51^N363A;Y405A fusion protein
[1]
  virus infectivity, TZM-b1 reporter cells, percentage of wildtype trans heterodimer: 35%

## Vpr-p51^W406A fusion protein
[1]
  virus infectivity, TZM-b1 reporter cells, percentage of wildtype trans-RT heterodimer: < 50%

## Vpr-p51^W402A fusion protein
[1]
  virus infectivity, TZM-b1 reporter cells, percentage of wildtype trans-RT heterodimer: < 50%

## 2′,5′-bis-O-(tert-butyldimethylsilyl)-beta-D-ribofuranosyl 3′-spiro-5″-(4″-amino-1″,2″-oxathiole 2″,2″-dioxide) [TSAO]
[7]
  RT heterodimerization, destabilization: can destabilize HIV-1 RT heterodimerization

## Vpr-p51^W398A fusion protein
[1]
  virus infectivity, TZM-b1 reporter cells, percentage of wildtype trans-RT heterodimer: < 50%

## Nc1ccn([C@@H]2CS[C@H](CO)O2)c(=O)n1 [3TC]
[6]
  antiviral effect, inhibition of infectivity: potent, dosage-dependent antiviral effect

## Vpr-p51^W401A fusion protein
[5]
  virus infectivity, TZM-b1 reporter cells, percentage of wildtype trans heterodimer: 40%
[8]
  virus infectivity, TZM-b1 reporter cells, percentage of wildtype trans heterodimer: 40%
